Test results published in article PMC10037447.
Where “and” joins values, the source holds several entries; their conditions need not be identical. Identical values can stand only once.

Target: F-type ATP synthase from bovine heart mitochondria (Bos taurus (purified from bovine heart))
Assay: native gel or EMSA; Blue-Native PAGE (3-12% Bis-Tris mini-gels) of F-type ATP synthase re-extracted with 0.5% LMNG from LAiR proteoliposomes (bovine heart lipids) at time points over 5 days of storage on ice at 4 °C

stoichiometry N: 2 and 4
Substance: F-type ATP synthase from bovine heart mitochondria (complex)
